Laboratory results reported in publication PMC12222027, “In situ structure of a bacterial flagellar motor at subnanometre resolution reveals adaptations for increased torque” (Nature Microbiology, 2025).

Columns and labels:
[1] = target: FlgP (basal disk protein, C. jejuni 81-176, in the motor in situ) (C. jejuni 81-176 (endogenous in minicells)); experiment: cryo-EM structure; in situ single-particle analysis of motors in C. jejuni ΔflhG ΔflaAB minicells; C17 focused refinement of the periplasmic scaffold and first basal disk ring (7.9 Å); AlphaFold2 models docked or flexibly fitted into the map
[2] = target: the molecule itself; experiment: as above

FlgP (basal disk protein, C. jejuni 81-176, in the motor in situ) (natural protein)
stoichiometry N [1]: 51

B1: FliL (C. jejuni 81-176, endogenous) (natural protein)
chain: MDEELENEETKKKKGGSLVIIIVILLFVLLLSIMGVIAWLISSSSSDESEVKEAPKEEAKADKPKVSAPTQRGSDFANIGPMYPLDPFTLNLLSDSGSRYVKCTIELEQNSELLKPELDKKVPVIRDIIIRTLTAKTFEEVSTQKGKERLKDELVGKINEILTDGFIKNVYFTDFVVS
notes: FliL, flagellar protein forming an arc of four copies around the MotB linker in each asymmetric unit; source: endogenous, C. jejuni 81-176: ΔflhG ΔflaAB minicells imaged in situ; lysates of formaldehyde-crosslinked ΔpflA or ΔpflB cells carrying the PflA-FLAG or PflB-FLAG plasmid
stoichiometry N [2]: 4
